Substitutions are numbered along the chain they refer to. In names and notes the source's numbering stands. Like-named read-outs stand apart in the source and are kept apart here.
T1: mouse CADM3 (mouse, UniProt Q99N28 23-396)
T1 construct: Full-length gene expressed transiently on Expi293F cells; also called mouse CADM3/Expi293F cells; Mouse CADM3-expressing cells
T1 sequence: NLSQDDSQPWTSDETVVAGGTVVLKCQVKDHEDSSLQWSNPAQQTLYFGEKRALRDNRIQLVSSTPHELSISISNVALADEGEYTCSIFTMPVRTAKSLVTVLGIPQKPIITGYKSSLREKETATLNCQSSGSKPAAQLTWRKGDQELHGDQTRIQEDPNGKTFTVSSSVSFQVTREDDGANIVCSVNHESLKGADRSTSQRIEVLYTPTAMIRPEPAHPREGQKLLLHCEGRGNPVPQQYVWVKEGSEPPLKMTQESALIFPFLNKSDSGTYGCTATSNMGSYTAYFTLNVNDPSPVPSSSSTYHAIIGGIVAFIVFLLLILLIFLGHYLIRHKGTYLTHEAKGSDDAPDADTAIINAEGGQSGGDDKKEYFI

T2: human CADM3 (human, UniProt Q8N126 25-398)
T2 construct: Full-length gene expressed transiently on Expi293F cells; also called cell adhesion molecule 3; human CADM3/Expi293F cells
T2 sequence: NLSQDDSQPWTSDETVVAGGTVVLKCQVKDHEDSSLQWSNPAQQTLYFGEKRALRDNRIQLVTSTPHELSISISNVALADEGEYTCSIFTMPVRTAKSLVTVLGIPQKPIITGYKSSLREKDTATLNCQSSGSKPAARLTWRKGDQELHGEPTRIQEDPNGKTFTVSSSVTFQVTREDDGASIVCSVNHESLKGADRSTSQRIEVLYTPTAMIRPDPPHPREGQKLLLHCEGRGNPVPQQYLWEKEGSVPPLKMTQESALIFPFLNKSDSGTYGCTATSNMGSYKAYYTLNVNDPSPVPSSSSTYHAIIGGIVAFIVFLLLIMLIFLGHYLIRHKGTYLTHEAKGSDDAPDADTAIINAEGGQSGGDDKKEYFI

B1: iCADM3_3R1-L11_05 VHH-hG4PE(R409K) (Fc fusion)
chain: EVQLVESGGGLIQPGGSLRLSCAASGSIFSFNAMGWYRQAPGKGRVLVAVITSGGYTNYADSVKGRFTISRDNSKNTVYLQMNSLRAEDTAVYYCNAEGVYSDYVIMNYWGQGTLVTVSS
notes: also called iCADM3-3R1-L11_05 humanized antibody; not shown: Hinge-CH2-CH3 region of the human IgG4 heavy chain constant region (IgG4 variant)
B2: iCADM3_3R1-L11_04 VHH-hG4PE(R409K) (Fc fusion)
chain: B1 chain with P14A, F29V, G44Q, V46G, V78L, Y79F
notes: also called iCADM3-3R1-L11_04 humanized antibody; not shown: Hinge-CH2-CH3 region of the human IgG4 heavy chain constant region (IgG4 variant)
B3: AVM IgG4PE(R409K)_iCADM3_3R1-L5 dVHH (bispecific antibody)
heavy: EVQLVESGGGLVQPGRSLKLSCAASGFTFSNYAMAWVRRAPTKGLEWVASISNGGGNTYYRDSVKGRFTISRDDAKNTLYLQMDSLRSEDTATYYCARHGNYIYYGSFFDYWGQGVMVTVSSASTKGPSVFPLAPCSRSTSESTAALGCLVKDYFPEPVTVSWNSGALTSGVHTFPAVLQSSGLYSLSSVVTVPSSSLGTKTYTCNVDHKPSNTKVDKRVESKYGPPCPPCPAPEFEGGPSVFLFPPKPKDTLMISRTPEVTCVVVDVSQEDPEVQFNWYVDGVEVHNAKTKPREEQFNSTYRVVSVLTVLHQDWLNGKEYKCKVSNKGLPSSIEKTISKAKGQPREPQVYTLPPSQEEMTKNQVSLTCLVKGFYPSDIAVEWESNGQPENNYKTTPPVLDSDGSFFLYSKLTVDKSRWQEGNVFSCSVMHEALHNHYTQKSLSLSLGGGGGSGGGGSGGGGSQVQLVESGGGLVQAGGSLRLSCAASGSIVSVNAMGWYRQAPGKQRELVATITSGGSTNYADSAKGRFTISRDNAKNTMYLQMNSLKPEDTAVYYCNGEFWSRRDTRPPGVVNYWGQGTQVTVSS
light: QFVLSQPNSVSTNLGSTVKLSCKRSTGNIGSNYVSWYQQHEGRSPTTMIYRDDKRPDGVPDRFSGSIDRSSDSALLTINNVQTEDEADYFCQSYSSGINIFGGGTKLTVLGQPKAAPSVTLFPPSSEELQANKATLVCLISDFYPGAVTVAWKADSSPVKAGVETTTPSKQSNNKYAASSYLSLTPEQWKSHRSYSCQVTHEGSTVEKTVAPTECS
notes: also called anti-AVM-IgG4-CADM3 VHH bispecific antibody
B4: AVM IgG4PE(R409K)_iCADM3_3R1-L8 dVHH (bispecific antibody)
heavy: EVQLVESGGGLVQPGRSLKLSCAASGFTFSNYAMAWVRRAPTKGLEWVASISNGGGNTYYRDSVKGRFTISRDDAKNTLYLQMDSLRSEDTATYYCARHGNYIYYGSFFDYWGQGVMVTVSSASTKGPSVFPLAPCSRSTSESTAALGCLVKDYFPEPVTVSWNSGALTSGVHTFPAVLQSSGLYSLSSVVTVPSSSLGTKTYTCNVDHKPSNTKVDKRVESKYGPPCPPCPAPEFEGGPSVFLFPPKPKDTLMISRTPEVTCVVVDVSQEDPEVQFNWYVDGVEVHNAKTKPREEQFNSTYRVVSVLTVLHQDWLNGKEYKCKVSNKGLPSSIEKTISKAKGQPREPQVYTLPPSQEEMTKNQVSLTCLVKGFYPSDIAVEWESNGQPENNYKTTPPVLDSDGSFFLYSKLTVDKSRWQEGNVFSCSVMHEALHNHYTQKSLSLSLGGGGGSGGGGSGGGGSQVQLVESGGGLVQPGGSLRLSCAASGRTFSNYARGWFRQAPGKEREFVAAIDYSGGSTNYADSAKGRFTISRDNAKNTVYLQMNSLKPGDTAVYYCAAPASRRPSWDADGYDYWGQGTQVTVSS
light: B3 light
notes: as for B3
B5: CADM3316 hG4PE(R409K) (antibody, V domains shown)
VH: EVQLVETGGALVQPGGSLRLSCAASGFTFSSYSMNWVRQAPGKGLEWLSGISGGAFSTHYADSVKGRFTISRDNSKNTLYLQMNSLRAEDTAVYYCARVGRLSGSYNRYYYYYGMDVWGQGTLVTVSS
VL: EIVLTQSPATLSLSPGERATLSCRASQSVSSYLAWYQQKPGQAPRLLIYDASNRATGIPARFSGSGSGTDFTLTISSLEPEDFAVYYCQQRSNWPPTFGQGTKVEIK
notes: Human IgG4 variant (S228P, L235E, R409K), vector pCI-hKG4PE(R409K)
B6: CADM3404 hG4PE(R409K) (antibody, V domains shown)
VH: EVQLVETGGGVVQPGRSLRLSCAASGFAFSNYGMHWVRQAPGKGLEWVSVIYSGGNTDYADSVKGRFTISRDNSKNTVYLQMNSLRAEDTAVYYCASRRVVPGVIDYFDSWGQGTLVTVSS
VL: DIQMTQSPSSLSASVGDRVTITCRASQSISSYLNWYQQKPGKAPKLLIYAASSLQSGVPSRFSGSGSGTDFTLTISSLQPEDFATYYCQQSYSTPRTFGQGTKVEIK
notes: as for B5
B7: CADM3402 hG4PE(R409K) (antibody, V domains shown)
VH: B6 VH with T7S, V11L, R16G, A24T, A28R, N31M, A40S
VL: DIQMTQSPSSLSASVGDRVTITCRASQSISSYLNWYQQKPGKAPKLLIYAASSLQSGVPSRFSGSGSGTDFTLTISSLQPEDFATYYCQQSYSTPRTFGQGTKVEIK
notes: as for B5
B8: CADM3458 hG4PE(R409K) (antibody, V domains shown)
VH: B6 VH with T7S, A28T, N31R, M34I, S49A
VL: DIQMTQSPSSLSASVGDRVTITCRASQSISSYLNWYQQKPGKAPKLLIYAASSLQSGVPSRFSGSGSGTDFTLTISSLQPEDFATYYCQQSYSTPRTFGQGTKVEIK
notes: as for B5
B9: CADM3432 hG4PE(R409K) (antibody, V domains shown)
VH: QVQLQQSGPGLVKASQTLSLTCAISGDSVSSRSAAWDWIRQSPSRGLEWLGRTYYRSTWYNDYASSVRSRISINPDTSKNQFSLQLNSVTPEDTAVYYCVRANRKLPAPGQHFYYGMDVWGQGTTVTVSS
VL: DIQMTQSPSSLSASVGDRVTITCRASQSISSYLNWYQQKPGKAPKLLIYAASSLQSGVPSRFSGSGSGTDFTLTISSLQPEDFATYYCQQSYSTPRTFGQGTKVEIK
notes: as for B5
B10: CADM3448 hG4PE(R409K) (antibody, V domains shown)
VH: QVQLQQSGPGLVKPAQTLSLTCAISGDSVSSNSVAWNWVRQSPSRGLEWLGRTYYRSQWYNDYAGSVRSRITISADTSKNQFSLQLNSVTPEDTALYYCVRANRKLPAPGQHFYYGMDVWGQGTTVTVSS
VL: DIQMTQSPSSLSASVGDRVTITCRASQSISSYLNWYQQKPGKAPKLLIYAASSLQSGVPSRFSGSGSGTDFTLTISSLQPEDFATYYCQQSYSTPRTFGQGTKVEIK
notes: as for B5

How the values were obtained:
mouse CADM3 [1] = biological target: T1, mouse CADM3; assay: flow cytometry, 10 ug/mL, mouse CADM3/Expi293F vs parent Expi293F cells
Procedure: (§1) After washing with SB, the cells were suspended in SB, and the fluorescence intensity of each cell was measured using a flow cytometer FACS CANTO II (manufactured by Becton, Dickinson and Company). Note that as a negative control, 10 μg/mL of the anti-AVM antibody was used.
(§2) The detection results were analyzed, and a mean fluorescence intensity (MFI) was calculated using a geometric mean. Further, with respect to the MFI when the concentration of each antibody was 10 μg/mL, the ratio of the MFI (mean fluorescence intensity ratio) between the human CADM3/Expi293F cells and the Expi293F cells (parent cell line) was calculated.
(§3) With respect to the produced humanized anti-CADM3 VHH-Fc antibodies, reactivity with Expi293F cells, human CADM3/Expi293F cells, and mouse CADM3/Expi293F cells was analyzed by the same procedure as in Example 3.

human CADM3 [2] = biological target: T2, human CADM3; assay: flow cytometry, 10 ug/mL, human CADM3/Expi293F vs parent Expi293F cells
Procedure: as §1, §2, §3

mouse CADM3 [3] = biological target: T1, mouse CADM3; assay: flow cytometry, 10 ug/mL, mouse CADM3/Expi293F vs parent Expi293F cells; remark: listed apart in the source
Procedure: as §1, §2
Further, also with respect to AVM IgG4PE(R409K)_iCADM3_3R1-L5 dVHH, AVM IgG4PE(R409K)_iCADM3_3R1-L8 dVHH, AVM IgG4PE(R409K)_iCADM3_3R1-L10 dVHH, and AVM IgG4PE(R409K)_iCADM3_3R1-L11 dVHH, reactivity with the Expi293F cells, the human CADM3/Expi293F cells, and the mouse CADM3/Expi293F cells was analyzed by the same procedure, and the results are shown in Table 5.

hCADM3-GST = biological target: T3, hCADM3-GST (human); assay: SPR (Biacore T-100), antibody captured, hCADM3-GST as analyte
T3 construct: also called extracellular domain of human CADM3 to which GST was added at the C-terminal side; human CADM3-GST
Procedure: (§4) The affinity of the anti-CADM3 antibodies produced in Example 2 for human CADM3 and mouse CADM3 was measured using Biacore T-100 (GE Healthcare). Each of the antibodies was immobilized on a […] sensor chip using a Human antibody Capture kit, and the binding ability was evaluated using hCADM3-GST and mCADM3-GST produced in Example 4 as analytes.
(§5) The obtained sensorgram was analyzed with BIA evaluation software, and the dissociation constant (KD value) was calculated.

human CADM3 [4] = biological target: T2, human CADM3; assay: flow cytometry, 10 ug/mL, human CADM3/Expi293F vs parent Expi293F cells; remark: listed apart in the source
Procedure: By using the cells, the reactivity of the antibodies produced in Example 2 with the CADM3-expressing cells was analyzed by a fluorescence activated cell sorting (FACS) method according to the following procedure.
as §1, §2

mCADM3-GST = biological target: T4, mCADM3-GST (mouse); assay: SPR (Biacore T-100), antibody captured, mCADM3-GST as analyte
T4 construct: also called extracellular domain of mouse CADM3 to which GST was added at the C-terminal side; mouse CADM3-GST
Procedure: as §4, §5

mouse CADM3 [5] = biological target: T1, mouse CADM3; assay: flow cytometry, 10 ug/mL, mouse CADM3/Expi293F vs parent Expi293F cells; remark: listed apart in the source

Row | Binder | Mean fluorescence intensity ratio (mouse CADM3 [1]) | Mean fluorescence intensity ratio (human CADM3 [2]) | Mean fluorescence intensity ratio (mouse CADM3 [3]) | binding result (hCADM3-GST) | Mean fluorescence intensity ratio (human CADM3 [4]) | binding result (mCADM3-GST) | Mean fluorescence intensity ratio (mouse CADM3 [5])
1 | B1 | 24.6 | 11.1 |  |  |  |  | 
2 | B2 | 26.7 | 22.5 |  |  |  |  | 
3 | B3 |  |  | 1.96 |  |  |  | 
4 | B4 |  |  | 3.65 |  |  |  | 
5 | B5 |  |  |  | binds | 6.5 | binds | 7.1
6 | B6 |  |  |  | binds | 8.7 | binds | 8.2
7 | B7 |  |  |  | binds | 10.8 | binds | 9.4
8 | B8 |  |  |  | binds | 5.7 | binds | 5.4
9 | B9 |  |  |  | binds | 14.7 | binds | 14.6
10 | B10 |  |  |  | binds | 9.4 | binds | 10.4

Reference: patent US20210147541A1 (Kyowa Kirin, published 2021)
